Results published in publication PMC12809509.

Target: Prebiotinylated FcγRI (Biotinylated Human CD64 Protein, His, Avitag) (human) (UniProt P12314)
Assay: SPR; Biacore T200; biotinylated FcγRI immobilised on a streptavidin SA chip (F-chip); single-cycle kinetics, OPD injected at 90, 30, 10 nM, 120 s contact, 900 s dissociation; running buffer HBS-EP 1x pH 7.4; double-referenced; 1:1 Langmuir fit; mean ± SD, n = 3

Sequence of UniProt P12314 (P12314 16-292): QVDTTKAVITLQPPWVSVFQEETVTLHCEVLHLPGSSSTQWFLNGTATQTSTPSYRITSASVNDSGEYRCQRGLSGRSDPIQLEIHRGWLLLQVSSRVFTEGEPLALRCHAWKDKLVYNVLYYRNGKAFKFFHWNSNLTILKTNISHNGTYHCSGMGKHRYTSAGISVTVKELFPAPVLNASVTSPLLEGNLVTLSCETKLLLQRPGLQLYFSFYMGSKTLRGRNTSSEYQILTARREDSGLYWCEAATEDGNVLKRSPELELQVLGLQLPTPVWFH

Kd: 7.33 nM | koff: 0.00093 s⁻¹ | kon: 127000 M⁻¹ s⁻¹
Substance: nivolumab (antibody)
